# From IntAct's records for PubMed 20224574
# B1: Nibrin (Homo sapiens), O60934 (parent)
# chain: MWKLLPAAGPAGGEPYRLLTGVEYVVGRKNCAILIENDQSISRNHAVLTANFSVTNLSQTDEIPVLTLKDNSKYGTFVNEEKMQNGFSRTLKSGDGITFGVFGSKFRIEYEPLVACSSCLDVSGKTALNQAILQLGGFTVNNWTEECTHLVMVSVKVTIKTICALICGRPIVKPEYFTEFLKAVESKKQPPQIESFYPPLDEPSIGSKNVDLSGRQERKQIFKGKTFIFLNAKQHKKLSSAVVFGGGEARLITEENEEEHNFFLAPGTCVVDTGITNSQTLIPDCQKKWIQSIMDMLQRQGLRPIPEAEIGLAVIFMTTKNYCDPQGHPSTGLKTTTPGPSLSQGVSVDEKLMPSAPVNTTTYVADTESEQADTWDLSERPKEIKVSKMEQKFRMLSQDAPTVKESCKTSSNNNSMVSNTLAKMRIPNYQLSPTKLPSINKSKDRASQQQQTNSIRNYFQPSTKKRERDEENQEMSSCKSARIETSCSLLEQTQPATPSLWKNKEQHLSENEPVDTNSDNNLFTDTDLKSIVKNSASKSHAAEKLRSNKKREMDDVAIEDEVLEQLFKDTKPELEIDVKVQKQEEDVNVRKRPRMDIETNDTFSDEAVPESSKISQENEIGKKRELKEDSLWSAKEISNNDKLQDDSEMLPKKLLLTEFRSLVIKNSTSRNPSGINDDYGQLKNFKKFKKVTYPGAGKLPHIIGGSDLIAHHARKNTELEEWLRQEMEVQNQHAKEESLADDLFRYNPYLKRRR
# Key:
# Conditions in all cases: with mdc1_human MDC1, Q14676
# mdc1_human MDC1, Q14676 [1] = variants of: B1
# mdc1_human MDC1, Q14676 [2] = variants of: B1; remark: listed apart in the source
# mdc1_human MDC1, Q14676 [3] = variants of: B1; remark: listed apart in the source
# Sequence of mdc1_human MDC1, Q14676 (Q14676 whole entry): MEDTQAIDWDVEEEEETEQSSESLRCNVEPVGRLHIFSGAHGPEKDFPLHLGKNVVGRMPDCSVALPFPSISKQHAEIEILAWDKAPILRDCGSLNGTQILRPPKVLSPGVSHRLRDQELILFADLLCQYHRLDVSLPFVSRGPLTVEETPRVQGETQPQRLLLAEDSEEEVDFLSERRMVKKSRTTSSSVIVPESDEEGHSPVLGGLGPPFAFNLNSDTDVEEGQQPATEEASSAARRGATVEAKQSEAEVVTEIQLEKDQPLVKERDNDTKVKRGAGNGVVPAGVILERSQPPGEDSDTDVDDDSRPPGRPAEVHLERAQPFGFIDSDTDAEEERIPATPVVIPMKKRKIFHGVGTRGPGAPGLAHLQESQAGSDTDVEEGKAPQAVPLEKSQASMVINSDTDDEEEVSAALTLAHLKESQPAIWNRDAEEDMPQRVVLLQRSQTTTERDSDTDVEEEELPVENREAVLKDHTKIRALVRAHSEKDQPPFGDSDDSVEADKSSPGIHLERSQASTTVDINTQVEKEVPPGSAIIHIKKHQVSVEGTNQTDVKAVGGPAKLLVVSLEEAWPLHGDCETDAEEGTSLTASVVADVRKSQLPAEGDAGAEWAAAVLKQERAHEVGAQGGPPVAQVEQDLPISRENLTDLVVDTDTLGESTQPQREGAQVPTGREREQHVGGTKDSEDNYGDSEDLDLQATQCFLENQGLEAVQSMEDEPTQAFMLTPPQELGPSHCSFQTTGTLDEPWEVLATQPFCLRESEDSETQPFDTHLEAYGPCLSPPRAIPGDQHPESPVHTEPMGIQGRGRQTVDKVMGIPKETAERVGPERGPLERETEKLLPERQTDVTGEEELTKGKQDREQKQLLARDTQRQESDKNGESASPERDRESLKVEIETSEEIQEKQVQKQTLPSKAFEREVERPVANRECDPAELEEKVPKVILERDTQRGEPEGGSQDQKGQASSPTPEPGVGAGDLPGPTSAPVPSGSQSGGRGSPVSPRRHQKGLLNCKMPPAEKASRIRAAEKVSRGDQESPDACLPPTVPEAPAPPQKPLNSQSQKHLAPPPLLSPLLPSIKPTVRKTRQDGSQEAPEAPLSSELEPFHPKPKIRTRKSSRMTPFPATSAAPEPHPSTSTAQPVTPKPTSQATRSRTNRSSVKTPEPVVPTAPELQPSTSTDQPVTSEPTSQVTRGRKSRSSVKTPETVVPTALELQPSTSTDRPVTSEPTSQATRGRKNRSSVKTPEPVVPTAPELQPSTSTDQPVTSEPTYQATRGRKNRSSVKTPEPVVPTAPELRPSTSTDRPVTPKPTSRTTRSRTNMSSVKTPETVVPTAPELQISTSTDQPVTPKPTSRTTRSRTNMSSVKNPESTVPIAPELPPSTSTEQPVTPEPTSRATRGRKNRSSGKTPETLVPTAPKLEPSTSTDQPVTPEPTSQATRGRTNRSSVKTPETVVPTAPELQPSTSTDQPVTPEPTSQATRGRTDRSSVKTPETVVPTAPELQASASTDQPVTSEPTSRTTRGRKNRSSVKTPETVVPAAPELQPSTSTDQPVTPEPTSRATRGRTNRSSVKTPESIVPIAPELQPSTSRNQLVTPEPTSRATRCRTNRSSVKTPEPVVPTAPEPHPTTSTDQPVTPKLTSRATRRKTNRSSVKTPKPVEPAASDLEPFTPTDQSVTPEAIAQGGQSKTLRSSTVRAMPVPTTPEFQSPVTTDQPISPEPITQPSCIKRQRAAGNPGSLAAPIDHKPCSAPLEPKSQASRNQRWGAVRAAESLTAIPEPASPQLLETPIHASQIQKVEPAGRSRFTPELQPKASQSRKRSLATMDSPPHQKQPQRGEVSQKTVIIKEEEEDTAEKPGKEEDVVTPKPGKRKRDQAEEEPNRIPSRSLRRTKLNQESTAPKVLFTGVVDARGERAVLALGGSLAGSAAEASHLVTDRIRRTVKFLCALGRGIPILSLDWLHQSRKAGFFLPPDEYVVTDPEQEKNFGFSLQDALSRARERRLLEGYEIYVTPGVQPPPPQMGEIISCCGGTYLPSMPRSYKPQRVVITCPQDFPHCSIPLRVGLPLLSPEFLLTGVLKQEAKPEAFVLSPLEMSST
Variant,"effect of a mutation on the interaction (mdc1_human MDC1, Q14676 [1])","effect of a mutation on the interaction (mdc1_human MDC1, Q14676 [2])","effect of a mutation on the interaction (mdc1_human MDC1, Q14676 [3])"
R28A,decreasing interaction,disrupting interaction,
K160M,,disrupting interaction,decreasing interaction
